From patent US20250282885A1 (VST BIO, published 2025)

Experiments:
human Sdc2 [1] = target: T1, human Sdc2 (human, UniProt P34741 19-144, limits assumed); experiment: Octet tandem binning; saturating Ab m4 19844-R4M-P1-A10
T1 construct: Antigen of the Octet tandem binning, loaded on biosensors at 100 nM; also called huSdc2; hSdc2
Summary of the method: (§1)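 Human Sdc2 (100 nM) served as antigen on Octet biosensors, which were dipped in saturating antibody at 25 μg/ml for 240 s, then competing antibody at 5 μg/ml for 180 s. Competing-antibody signal was divided by its binding after a buffer-only saturation step.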

human Sdc2 [2] = target: T1, human Sdc2; experiment: Octet tandem binning; Buffer in place of a saturating Ab
human Sdc2 [3] = target: T1, human Sdc2; experiment: Octet tandem binning; saturating Ab m3 19844-R3-P1-C02 (row boxed, self-self >0.09)
human Sdc2 [4] = target: T1, human Sdc2; experiment: Octet tandem binning; saturating Ab f12 19838-6-N03-A
human Sdc2 [5] = target: T1, human Sdc2; experiment: Octet tandem binning; saturating Ab f4 19844-R3-P3-C11
Summary of the method: as §1

mouse Sdc2 [6] = target: T2, mouse Sdc2 (mouse, UniProt P43407 19-145, limits assumed); experiment: Octet BLI, HIS1K sensor loaded with moSdc2, antibody as sample; Full R2 0.9584
T2 construct: Immobilised on Maxisorp plates for panning and ELISA; also called mSdc2; moSdc2

human Sdc2 [7] = target: T1, human Sdc2; experiment: Kd (human Sdc2), summary table of the mAbs
[8] = target: human Sdc2 on Human Umbilical Vein Endothelial Cells (HUVEC) (human, UniProt P34741 19-201); experiment: cell-based or functional assay
human Sdc2 [9] = target: T1, human Sdc2; experiment: Octet tandem binning; saturating Ab m8 19844-R4M-P1-B01 (marked non-binding ligand)
human Sdc2 [10] = target: T1, human Sdc2; experiment: Octet tandem binning; saturating Ab f6 19844-R3-P3-E09
Summary of the method: as §1

human Sdc2 [11] = target: T1, human Sdc2; experiment: Octet BLI, heading box over the sensorgram
Description: (§2) In order to characterize the binding affinity and in vivo/in vitro functional ability of the twelve clones generated by the previous studies and disclosed in Table 1, a series of assays were performed on each clone. These assays measured the affinity of each antibody clone for human, pig, and mouse Sdc2 using an Octet® binding assay system. Additionally, the functional ability of each clone to inhibit VEGFA-driven permeability (see Santiago, et al. (2021) J Am Heart Assoc. 10(18):e020521) was assessed in two therapeutic settings: a “prevention” study in which three concentrations of antibody (5 μg/ml, 10 μg/ml, 15 μg/ml, 20 μg/ml, and/or 40 μg/ml depending on the study) were pre-incubated for an hour before administration of 100 ng/ml of VEGFA, and a “treatment” study in which 3 hours of pre-treatment with 100 ng/ml VEGFA were followed by treatment with antibody at 20 μg/ml or 40 μg/ml. Results are shown for 8-G17 in FIG. 8 and FIG. 9, 20-H19-AB in FIG. 10 and FIG. 11 (FIG. 12 for monkey ECs), R3-P3-C11 in FIG. 13 and FIG. 14, R4M-P3-E06 in FIG. 15 and FIG. 16, R3-P3-E09 in FIG. 17 and FIG. 18, R3-P1-C02 in FIG. 19 and FIG. 20, R3-P3-A12 in FIG. 21 and FIG. 22, R4M-P3-A12 in FIG. 23 and FIG. 24, and R4M-P1-A10 in FIG. 25 and FIG. 26.

mouse Sdc2 [12] = target: T2, mouse Sdc2; experiment: Octet BLI, heading box over the sensorgram
Description: as §2

human Sdc2 [13] = target: T1, human Sdc2; experiment: Octet tandem binning; saturating Ab f7 19844-R3-P3-A12
human Sdc2 [14] = target: T1, human Sdc2; experiment: Octet BLI, HIS1K sensor loaded with huSdc2, antibody as sample; Full R2 0.9668
Description: as §2

pig Sdc2 = target: T3, pig Sdc2 (pig, UniProt F1S0L5 19-145); experiment: Octet BLI, heading box over the sensorgram; the box prints nm, the table gives 1.50E-08 M
T3 construct: also called pSdc2
Description: as §2

human Sdc2 [15] = target: T1, human Sdc2; experiment: Octet tandem binning; saturating Ab m1 19838-20H19-AB
human Sdc2 [16] = target: T1, human Sdc2; experiment: Octet tandem binning; saturating Ab f8 19844-R4M-P2-C02

T1 sequence (P34741 19-144 limits assumed): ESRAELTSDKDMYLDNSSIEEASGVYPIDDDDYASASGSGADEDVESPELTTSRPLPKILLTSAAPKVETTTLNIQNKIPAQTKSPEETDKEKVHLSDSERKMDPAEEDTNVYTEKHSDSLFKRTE
T2 sequence (P43407 19-145 limits assumed): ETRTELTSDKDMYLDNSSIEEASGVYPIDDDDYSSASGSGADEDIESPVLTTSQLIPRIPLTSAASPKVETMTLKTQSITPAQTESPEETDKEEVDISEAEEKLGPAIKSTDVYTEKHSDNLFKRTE
Sequence of human Sdc2 on Human Umbilical Vein Endothelial Cells (HUVEC) (P34741 19-201 limits assumed): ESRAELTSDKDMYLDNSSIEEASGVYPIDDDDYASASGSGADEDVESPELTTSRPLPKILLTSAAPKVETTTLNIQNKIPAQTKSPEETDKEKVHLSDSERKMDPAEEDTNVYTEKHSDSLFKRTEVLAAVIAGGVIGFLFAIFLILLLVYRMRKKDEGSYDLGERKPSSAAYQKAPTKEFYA

- raw competing-Ab binding signal (human Sdc2 [1]): -0.0712
- raw competing-Ab binding signal (human Sdc2 [2]): 0.0926
- raw competing-Ab binding signal (human Sdc2 [3]): 0.0422
- raw competing-Ab binding signal (human Sdc2 [4]): 0.136
- raw competing-Ab binding signal (human Sdc2 [5]): -0.0875
- Kd (mouse Sdc2 [6]): 11.6 nM
- koff (mouse Sdc2 [6]): 0.00914 s⁻¹
- kon (mouse Sdc2 [6]): 3.74e+06 M⁻¹ s⁻¹
- Kd (human Sdc2 [7]): 14 nM
- % Inhibition of VEGFA-induced permeability at 24hrs (20ug/ml) [8]: 60%
- raw competing-Ab binding signal (human Sdc2 [9]): 0.0929
- raw competing-Ab binding signal (human Sdc2 [10]): -0.0526
- Kd (human Sdc2 [11]): ~14 nM
- Kd (mouse Sdc2 [12]): ~11.6 nM
- raw competing-Ab binding signal (human Sdc2 [13]): -0.0178
- Kd (human Sdc2 [14]): 14.4 nM
- koff (human Sdc2 [14]): 0.067 s⁻¹
- kon (human Sdc2 [14]): 4.65e+06 M⁻¹ s⁻¹
- Kd (pig Sdc2): ~15 nM
- raw competing-Ab binding signal (human Sdc2 [15]): 0.153
- raw competing-Ab binding signal (human Sdc2 [16]): 0.0077
B1: R4M-P3-A12 (antibody, human IgG1, kappa, V domains shown)
VH: EVQLVESGGGVVQPGGSLRLSCAASGFTFSDHYMSWIRQAPGKGLEWVSYLSGSGTSIYYADSVKGRFTISRDNAKKSLYLQMNSLRAEDTAVYYCARVGPAAGNAFDIWGQGTMVTVSS
VL: QSVLTQPPSASGTPGQRVTISCSGSSSNIGSNYVYWYQQLPGTAPKLLIYRNNQRPSGVPDRFSGSKSGTSASLAITGLQAEDEADYYCQSYDSSLSGVVFGGGTKLTVLR
